Experimental data: patent US20260242478A1 (published 2026)
Where no end group is shown, it is not given here.

B1: Phage-492 (peptide, not shown: large carriers)
peptide: YCWSHSPPFIKKCY
notes: Clonal phage of the Peptide-87 optimisation library, tested as crude supernatant
B2: Phage-499 (peptide, not shown: large carriers)
peptide: YCEGHAPEYMAKCL
notes: as for B1
B3: Phage-495 (peptide, not shown: large carriers)
peptide: YCEGHLPEYIQKCL
notes: as for B1
B4: Phage-496 (peptide, not shown: large carriers)
peptide: YCEGHLPEYIWKCL
notes: as for B1
B5: Phage-489 (peptide, not shown: large carriers)
peptide: YCEGHSQEYLWKCL
notes: as for B1
B6: Phage-486 (peptide, not shown: large carriers)
peptide: YCEGHLPEYLGKCL
notes: as for B1
B7: Phage-488 (peptide, not shown: large carriers)
peptide: YCEGHLPEYLAKCL
notes: as for B1
B8: Phage-34 (peptide, not shown: large carriers)
peptide: MDWCPRHMWNYCFA
modifications: cysteine pairing not given here; also: displayed on phage as fusion to pIII, linker and pIII sequence not given here
notes: Clonal phage supernatant
B9: Phage-490 (peptide, not shown: large carriers)
peptide: YCEGHSSEYIQKCL
notes: as for B1
B10: Phage-497 (peptide, not shown: large carriers)
peptide: YCEGHAPEYIGKCL
notes: as for B1
B11: Phage-494 (peptide, not shown: large carriers)
peptide: YCEGHLPEYLEKCV
notes: as for B1
B12: Phage-491 (peptide, not shown: large carriers)
peptide: HCSGHHWLQVWKCF
notes: as for B1
B13: Phage-498 (peptide, not shown: large carriers)
peptide: YCDGHSPIYMWKCL
notes: as for B1
B14: Phage-487 (peptide, not shown: large carriers)
peptide: YCEGHLPEYREKCL
notes: as for B1
B15: Phage-493 (peptide, not shown: large carriers)
peptide: YCEGHLPEYRNKCL
notes: as for B1

Legend:
[1] = target: T1, 006 PSMA Fab; assay: clonal phage ELISA; biotinylated PSMA Fab on neutravidin plate, PSMA antigen as competitor, anti-M13-HRP
T1 construct: also called Anti-PSMA Fab
Method: (§1) Clonal phage were harvested as crude supernatants and screened via standard ELISAs. […] Prior to the addition of clonal phage. wells were incubated with blocking buffer and PSMA antigen or blocking buffer alone. Without washing or aspirating, clonal phage supernatants were then added to the wells and incubated for a short time. Wells were then washed followed by detection of bound phage using a horse radish conjugated anti-M13 antibody.

[2] = target: T1, 006 PSMA Fab; assay: clonal phage ELISA; biotinylated PSMA Fab on neutravidin plate, bound phage detected with anti-M13-HRP
Method: as §1

[3] = target: T2, Anti-CD28 Fab (SEQ ID NOs: 696, 697); assay: phage binding ELISA; biotinylated anti-CD28 Fab on neutravidin plate, clonal phage supernatant, anti-M13 HRP detection
T2 construct: Biotinylated and captured on neutravidin coated plates in the phage ELISA

[4] = target: T2, Anti-CD28 Fab (SEQ ID NOs: 696, 697); assay: phage binding ELISA; Fab-coated wells pre-incubated with CD28 antigen as competitor, anti-M13 HRP detection;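 further: crude clonal phage supernatants from panned colonies added to wells after blocking buffer plus CD28 treatment, bound phage measured after a brief incubation and washing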
Method: After panning, phage infected bacteria were plated out and colonies picked into 96 well blocks. Clonal phage was then amplified and separated from bacterial cells via centrifugation.
Clonal phage were harvested as crude supematants and screened via standard ELISAs. […] Prior to the addition of clonal phage, wells were incubated with blocking buffer and CD28 antigen or blocking buffer alone. Without washing or aspirating, clonal phage supematants were then added to the wells and incubated for a short time. Wells were then washed followed by detection of bound phage using a horse radish conjugated anti-M13 antibody. Clonal phage of interest were then sent for sequence analysis.

[5] = target: T3, PSMA Fab (SEQ ID NOs: 19, 20); assay: competition ELISA, peptide titrated against 0.3 nM PSMA Fab on captured biotinylated PSMA
T3 construct: also called 006 PSMA Fab; anti-PSMA Fab
Method: The concentration of peptide required to reduce the maximum signal by 50% (IC₅₀) was calculated in Graphpad Prism software.

[6] = target: T4, anti-CD28 scFv (VH - linker 1 - VL) (biotinylated (site not stated)); assay: phage ELISA; biotinylated anti-CD28 scFv on neutravidin plate, clonal phage supernatant, anti-M13-HRP detection;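 further: before phage addition, wells were pretreated with soluble CD28 protein in blocking buffer, or with blocking buffer only as the comparison, then phage were added without washing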
[7] = target: T4, anti-CD28 scFv (VH - linker 1 - VL); assay: same phage ELISA, wells pre-incubated with soluble CD28 (competitor)
Method: Clonal phage were harvested as crude supernatants and screened via standard enzyme linked immunosorbent assays (ELISAs). […] Prior to the addition of clonal phage, wells were incubated with blocking buffer and CD28 soluble protein or blocking buffer alone. Without washing or aspirating, clonal phage supernatants were then added to the wells and incubated for a short time. Wells were then washed followed by detection of bound phage using a horse radish peroxidase conjugated anti-M13 antibody.

T2 sequence (VH, as listed by the source, chain 1 of 2): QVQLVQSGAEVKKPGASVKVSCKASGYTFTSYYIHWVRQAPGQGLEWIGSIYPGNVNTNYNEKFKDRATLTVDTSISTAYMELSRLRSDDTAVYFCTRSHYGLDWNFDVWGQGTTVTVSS
T2 sequence (VL, as listed by the source, chain 2 of 2): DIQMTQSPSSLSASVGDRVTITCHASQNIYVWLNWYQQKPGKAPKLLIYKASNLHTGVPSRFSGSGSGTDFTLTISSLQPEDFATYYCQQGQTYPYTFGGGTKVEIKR
T4 sequence (scFv, as listed by the source): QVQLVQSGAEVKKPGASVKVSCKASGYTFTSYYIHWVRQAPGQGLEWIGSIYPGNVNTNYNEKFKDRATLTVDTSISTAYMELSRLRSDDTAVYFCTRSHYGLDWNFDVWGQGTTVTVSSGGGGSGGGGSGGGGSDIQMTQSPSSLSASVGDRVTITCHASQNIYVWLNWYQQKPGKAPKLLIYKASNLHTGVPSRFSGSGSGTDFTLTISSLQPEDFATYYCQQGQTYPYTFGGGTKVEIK

Binder	phage binding ELISA signal (Anti-PSMA Fab, wells pre-incubated with PSMA antigen) [1]	Phage binding ELISA signal, Anti-PSMA Fab [2]	Anti-CD28 Fab signal (phage binding ELISA) [3]	Anti-CD28 Fab signal in the presence of CD28 (phage binding ELISA) [4]	other results
PTSFCRPPWMCEGL [Phage-4007]	0.0592	0.475			
LTSWCVPQWMCDGL [Phage-4005]	0.0623	0.523			
QMITCQPKWMCEGF [Phage-3998]	0.0852	0.589			
B1			2.06	0.06	
B2			2.47	0.08	
B3			1.9	0.08	
B4			2.32	0.09	
ILPCHWYTSDCPQH (cysteine pairing not given here; also: biotinylated (site not given here), PSMA peptide mask (P2)) [Peptide-200]					IC50 [5]: 12.2 µM
EVKKCVPAWMCESQ [Phage-4004]	0.0538	0.542			
MTNMCRPSWMCAVF [Phage-4002]	0.108	0.551			
B5			2.36	0.07	
B6			1.23	0.08	
B7			2.34	0.1	
B8					CD28 scFv signal [6]: 2.71; CD28 scFv signal in presence of CD28 [7]: 0.242
IMQRCEPLWMCSGL [Phage-4008]	0.0777	0.471			
QCTWNEKTWWMECE (cysteine pairing not given here; also: biotinylated (site not given here), PSMA peptide mask (P2)) [Peptide-204]					IC50 [5]: 9.07 µM
DGLICQPSWMCTGL [Phage-4001]	0.0705	0.554			
DIEVCRPHWMCEGF [Phage-4003]	0.0801	0.542			
B9			2.25	0.1	
QCVWDRGTWWMACD (cysteine pairing not given here; also: biotinylated, site not given here, PSMA peptide mask (P2)) [Peptide-209]					IC50 [5]: 10.2 µM
GPKLCLPMWMCQGF [Phage-4009]	0.0611	0.459			

Binder	phage binding ELISA signal (Anti-PSMA Fab, wells pre-incubated with PSMA antigen) [1]	Phage binding ELISA signal, Anti-PSMA Fab [2]	Anti-CD28 Fab signal (phage binding ELISA) [3]	Anti-CD28 Fab signal in the presence of CD28 (phage binding ELISA) [4]	other results
SKLLCVPPWMCYHV (cysteine pairing not given here; also: biotinylated (site not given here), PSMA peptide mask (P2)) [Peptide-194]					IC50 [5]: 10.3 µM
B10			2.1	0.07	
B11			2.11	0.06	
MCQWDELNYWMDCD (cysteine pairing not given here; also: biotinylated (site not given here), PSMA peptide mask (P2)) [Peptide-202]					IC50 [5]: 11 µM
QCVWDNFNYWMDCD (cysteine pairing not given here; also: biotinylated (site not given here), PSMA peptide mask (P2)) [Peptide-203]					IC50 [5]: 36.1 µM
QCVWDLTNYWMNCD (cysteine pairing not given here; also: biotinylated (site not given here), PSMA peptide mask (P2)) [Peptide-206]					IC50 [5]: 28.7 µM
B12			2.31	0.07	
MCQWDKINYWMDCD (cysteine pairing not given here; also: biotinylated (site not given here), PSMA peptide mask (P2)) [Peptide-205]					IC50 [5]: 5.52 µM
VQPWCVPAWMCDGL [Phage-3997]	0.0983	0.607			
QEMTCVPRWMCSGF [Phage-4000]	0.0832	0.566			
MDWCPRFMWDECFN (peptide, not shown: large carriers, Clonal phage supernatant) [Phage-33]					CD28 scFv signal [6]: 2.68; CD28 scFv signal in presence of CD28 [7]: 0.256
B13			2.47	0.09	
HCKFHDYHSWYVCY (cysteine pairing not given here; also: biotinylated, site not given here, PSMA peptide mask (P2)) [Peptide-212]					IC50 [5]: 6.39 µM
HVTMCSPNWMCWGL [Phage-4006]	0.0703	0.485			
LTRCVPDWMCYRAV (cysteine pairing not given here; also: biotinylated (site not given here), PSMA peptide mask (P2)) [Peptide-198]					IC50 [5]: 18.9 µM
QLPCHYWGEWCPQA (cysteine pairing not given here; also: biotinylated (site not given here), PSMA peptide mask (P2)) [Peptide-195]					IC50 [5]: 19.3 µM
DCHWNKATWWMDCE (cysteine pairing not given here; also: biotinylated, site not given here, PSMA peptide mask (P2)) [Peptide-207]					IC50 [5]: 9.86 µM
VQRVCVPTWMCDVF [Phage-3999]	0.07	0.584			
B14			1.96	0.07	
B15			2.38	0.17	
